Converted amounts (≈) assume the structure as drawn.
How the values were obtained:
trypsin [1] = target: T1, trypsin (Bos taurus, UniProt P00760); conditions: neutral medium (pH 7.0) and toluene
T1 sequence (P00760 24-246): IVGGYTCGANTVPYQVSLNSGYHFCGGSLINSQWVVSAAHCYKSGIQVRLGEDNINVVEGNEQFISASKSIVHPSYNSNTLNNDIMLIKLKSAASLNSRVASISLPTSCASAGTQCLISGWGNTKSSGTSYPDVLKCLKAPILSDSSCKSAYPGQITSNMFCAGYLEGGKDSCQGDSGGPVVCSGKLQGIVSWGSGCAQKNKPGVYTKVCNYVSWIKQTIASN

trypsin [2] = target: T1, trypsin; test: Trypsin-catalyzed polycondensation, seven days; format: biochemical, bovine; set-up: purchased Sigma-Aldrich #T4665; host or cells: bovine pancreas; conditions: 25° C.
[3] = Estimated solubility in water
trypsin [4] = target: T1, trypsin; test: Trypsin-catalyzed hydrolysis and condensation of alkoxysilanes; format: biochemical, bovine; set-up: purchased Sigma-Aldrich #T4665; host or cells: bovine pancreas
α-chymotrypsin = target: T2, α-chymotrypsin (Bos taurus, UniProt P00766); test: Standard enzymatic activity assay of inhibited α-chymotrypsin; format: biochemical, bovine; conditions: excess inhibitor (4:1 BBI to protease mole ratio), pH 7.0, two hours
T2 construct: purchased Sigma-Aldrich #C-4129; host or cells: bovine pancreas
Excerpt: Since α-chymotrypsin was inhibited by PCI, the presence of trypsin in α-chymotrypsin was confirmed. In addition, condensation was not observed despite the partial inhibition of α-chymotrypsin with BBI.

trypsin [5] = target: T1, trypsin; test: Standard enzymatic activity assay of inhibited trypsin; format: biochemical, bovine; set-up: purchased Sigma-Aldrich #T4665; host or cells: bovine pancreas; conditions: excess inhibitor (4:1 BBI, 2:1 PCI to protease mole ratio), pH 7.0, two hours
Experimental: Since α-chymotrypsin was inhibited by PCI, the presence of trypsin in α-chymotrypsin was confirmed. […] .
A proteinaceous inhibition study was conducted to investigate the role of the enzymatic active site in the hydrolysis and condensation of trimethylethoxysilane.

trypsin [6] = target: T1, trypsin; test: Proteinaceous inhibition of the trimethylethoxysilane reaction; format: biochemical, bovine; set-up: purchased Sigma-Aldrich #T4665; host or cells: bovine pancreas; conditions: 25° C., three hours, pH 7.0
Experimental: A proteinaceous inhibition study was conducted to investigate the role of the enzymatic active site in the hydrolysis and condensation of trimethylethoxysilane. […] .

[7] = Enzyme-catalyzed condensation study after six days; format: biochemical
Excerpt: This study was directed to an enzyme screen with […] in order to evaluate the ability of various enzymes to catalyze the formation of a siloxane bond. Based on the similarities of the proteins isolated from the Tethya aurantia marine sponge (silicatein), Cylindrotheca fusiformis diatom (silaffin), and Equisetum telmateia plant (biopolymer extract), a series of lipases and serine-proteases were selected as homologous proteolytic enzymes. […] […]. In this study, control reactions were defined as non-enzymatic reactions. Specifically, experiments conducted in the absence of a protein were defined as negative control reactions. Proteinaceous molecules such as bovine serum albumin and porcine γ-globulins were used to study non-specific protein catalysis.
[…]. […] (˜200 mg/mL).

[8] = Protease-catalyzed condensation study after three hours; format: biochemical; conditions: pH 7.0, three hours
Experimental: In comparison to control reactions, the ability of the proteases detailed in Table 3 to catalyse siloxane condensation was screened with […]. Comparatively, the original reactions conducted in the enzyme-catalysed condensation study were performed for six days versus three hours in this study.
Prior to reaction, the glass vials were silylated. […].
TLCK inhibits trypsin by alkylating the histidine residue in the catalytic triad.

[9] = Hydrolysis and condensation of trimethylethoxysilane by different sources of trypsin; effect of calcium; format: biochemical; conditions: 20 mM CaCl2, pH 7.0, 25° C., three hours
Excerpt: Although various sources (e.g. mammalian, fish) of trypsin are similar (e.g. tertiary structure), their selectivity and activity may be different. […] . The reaction products were isolated and quantitatively analysed by GC (FIG. 24).
Calcium activation of trypsin induces changes in the tertiary structure of the enzyme. […] . […] The reaction products were isolated and quantitatively analysed by GC (FIG. 25).

[10] = Temperature and pH studies of the trypsin-catalyzed condensation of trimethylsilanol; format: biochemical
Experimental: The effect of temperature on trypsin as well as the enzyme-catalyzed condensation reaction was studied. Prior to reaction, buffered aqueous solutions (pH 7.0) of trypsin were stirred and equilibrated at set temperatures in a thermostated water bath (+/−0.1° C.) for 20 minutes. […] In the thermal denaturation experiments, trypsin was boiled for 20 minutes and three hours in 50 mM Tris-HCl buffered Milli-Q water (pH 7.0), independently, before performing the condensation reaction at 25° C.
. […] Based on the chromatographic data, the enzyme-catalyzed condensation reaction was dependent on the pH. The silanol condensation reaction was optimum at pH 7.0.

C[Si](C)(C)O[Si](C)(C)C [hexamethyldisiloxane]
trypsin-catalyzed hydrolysis of the siloxane bond (reverse reaction) (trypsin [1]): not observed to catalyze the hydrolysis of a siloxane bond

CCO[Si](C)(OCC)OCC [methyltriethoxysilane]
trypsin-catalyzed polycondensation (result in words) (trypsin [2]): promoted the complete hydrolysis and, subsequent, polycondensation

CCO[Si](C)(C)C [trimethylethoxysilane]
solubility [3]: 1000 µg/mL (≈ 8.46 mM) | trypsin-catalyzed hydrolysis and condensation (result in words) (trypsin [4]; 4:1 monomer to enzyme weight ratio, 25° C., three hours): preferentially catalyze the hydrolysis and condensation | relative turnover number of hydrolysis (trypsin [4]; 10° C.): 0.53 s⁻¹ | condensed in the presence of trypsin (trypsin [4]; pH 7.0, 25° C., three hours): 84% | hydrolysed in the presence of trypsin (trypsin [4]; pH 7.0, 25° C., three hours): 100%

B1: BBI: trypsin-chymotrypsin inhibitor from soybean, 71 amino acids (protein, UniProt P01055 40-110, looked up)
Bowman-Birk type proteinase …: DDESSKPCCDQCACTKSNPPQCRCSDMRLNSCHSACKSCICALSYPAQCFCVDITDFCYEPCKPSEDDKEN
inhibition of α-chymotrypsin (α-chymotrypsin): 63% | inhibition of trypsin (trypsin [5]): 98% | decrease of percent hydrolysis of trimethylethoxysilane with inhibited trypsin (trypsin [6]): 24%

B2: PCI: trypsin inhibitor from Glycine max, 181 amino acids (protein, UniProt P01070 25-205, looked up)
Trypsin inhibitor A: DFVLDNEGNPLENGGTYYILSDITAFGGIRAAPTGNERCPLTVVQSRNELDKGIGTIISSPYRIRFIAEGHPLSLKFDSFAVIMLCVGIPTEWSVVEDLPEGPAVKIGENKDAMDGWFRLERVSDDEFNNYKLVFCPQQAEDDKCGDIGISIDHDDGTRRLVVSKNKPLVVQFQKLDKESL
inhibition of trypsin (trypsin [5]): 91% | decrease of percent hydrolysis of trimethylethoxysilane with inhibited trypsin (trypsin [6]): 6%

B3: trypsin: bovine pancreatic trypsin, commercial preparation (protein, UniProt P00760 24-246, looked up)
Serine protease 1: T1 sequence (P00760 24-246)
condensation of trimethylsilanol, Buffered pH 7 ([7]; 50 mM Tris-HCl pH 7.0, 25° C.): ✓ (determined to catalyse the condensation of greater than ten times more trimethylsilanol than the negative control reactions; as well as, greater than three or ten times more trimethylsilanol than the BSA reactions in organic and aqueous media, respectively) | condensation of trimethylsilanol, Dry Toluene ([7]; dry toluene, 25° C.): ✓ (determined to catalyse the condensation of greater than ten times more trimethylsilanol than the negative control reactions; as well as, greater than three or ten times more trimethylsilanol than the BSA reactions in organic and aqueous media, respectively) | condensation of trimethylsilanol, Water ([7]; water, 25° C.): ✓ (determined to catalyse the condensation of greater than ten times more trimethylsilanol than the negative control reactions; as well as, greater than three or ten times more trimethylsilanol than the BSA reactions in organic and aqueous media, respectively) | condensation of trimethylsilanol, Wet Toluene ([7]; wet toluene, 25° C.): ✓ (determined to catalyse the condensation of greater than ten times more trimethylsilanol than the negative control reactions; as well as, greater than three or ten times more trimethylsilanol than the BSA reactions in organic and aqueous media, respectively) | condensation of trimethylsilanol (result in words) [8]: preferentially catalyzed the condensation | increase of yield of the condensation of trimethylsilanol with calcium [9]: did not change | optimum pH of the silanol condensation reaction ([10]; 25° C., three hours, pH 4.0 to pH 10.0): 7.0 | optimum temperature of the condensation reaction ([10]; pH 7.0, three hours): approximately 25 °C

Reference: patent US7455998B2, “Methods for forming structurally defined organic molecules” (Dow Corning Corporation, priority 2004, dated 2008)
